Assay results reported in patent US7476386B1 (priority 1997, dated 2009).
Ends that are not written are not given here. * marks the point of attachment. Palmitoyl = CCCCCCCCCCCCCCCC(=O)*

Columns and labels:
Assay type in all cases: physicochemical
[1] = Test of uniformity of concentration on batch CK9; conditions: batch CK9, 15 random samples, each injected three times
Description: According to the Pharmacopoeia, powders for parenteral use are subjected to a requirement of uniformity of concentration. The test must be performed on 10 random samples, which are analysed individually for the active ingredient using an appropriate analytical method. The preparation satisfies the test if the concentration of each sample is between 85 and 115% of the average concentration.
The test was performed on 15 random samples, taken up in solution and diluted in 80% acetic acid according to a standardized operational procedure, so as always to inject an identical proportion of about 15 μg, defined during preparation of the calibration curve. Each sample was injected three times, the concentration of each active ingredient corresponding to the average of the three values obtained.

[2] = Solubility of the lipopeptides in pure water
[3] = Sterilizing filtration (0.22 μm) of lipopeptide mixtures; conditions: for yield (%): batch CK9, 20 mg/ml in 80% acetic acid, filtered 0.22 μm, range reflects precision of determination
Description: The solutions obtained were subjected to ultrasonic action to encourage the dispersion of the aggregates, mixed to give a final volume of 5.5 ml, and the mixture was again subjected to ultrasonic action, then diluted with 9.5 ml of water to obtain a final concentration of about 8% in acetic acid (AcOH), compatible with a good quality freeze-drying. This solution, after a final period in the ultrasonic bath, was filtered over Millipore Millex GV SLGV 0130S filters (0.22 μm).
An ultrasonic step was used at each stage to ensure effective dispersion of the aggregates.
The solutions were mixed, then filtered over Millex GV SLGV 0130S filters (0.22 μm). […] The receiver vessels and the filter were then rinsed with water, in sufficient quantity to give a final acetic acid concentration of 8% (final volume 15 ml as before), so as to ensure the quality of the freeze-drying step.
The procedure used was the same as for the previous batch, apart from the quantities. The solution of the peptide (20 mg/ml in 80% acetic acid) was filtered in 4 portions, changing the filter before its saturation, using identical membranes (Durapore STERIVEX GV 0.22 μm sterile units (Millipore)), then made up with the water used for rinsing the filters and for dilution. The final volume was 1516 ml (including 154 ml of acetic acid: 10% in final solution). The portion volume was 1.3 ml per dose. The apportioned doses were freeze-dried, and analysed using a validated HPLC determination method.
This set of peptides was synthesized as described in the previous examples.
This set of peptides was synthesized as described in example 1. The mixture of solutions was performed on a sample of 5 mg of each peptide previously dissolved at a concentration of 20 mg/ml in 80% acetic acid then mixed in the following order: 1: LSA3 NRI; 2: LSA3 NRII; 3: LSA3 CT1; 4 LSA3 RE.

[4] = batch CK2, simple mixture diluted to about 8% acetic acid, 0.22 μm filter
[5] = batch CK3, each lipopeptide in 80% acetic acid, mixed then filtered 0.22 μm

In the case of “TQGYFPDWQNYTPGPGVRYPLTFGWCYKLVPK(Pam)-NH2 (TQGYFPDWQNYTPGPGVRYPLTFGWCYKLVPK(Palmitoyl)-NH2; N-terminus assumed; SMILES CCCCCCCCCCCCCCCC(=O)NCCCC[C@H](NC(=O)[C@@H]1CCCN1C(=O)[C@@H](NC(=O)[C@H](CC(C)C)NC(=O)[C@H](CCCCN)NC(=O)[C@H](Cc1ccc(O)cc1)NC(=O)[C@H](CS)NC(=O)[C@H](Cc1c[nH]c2ccccc12)NC(=O)CNC(=O)[C@H](Cc1ccccc1)NC(=O)[C@@H](NC(=O)[C@H](CC(C)C)NC(=O)[C@@H]1CCCN1C(=O)[C@H](Cc1ccc(O)cc1)NC(=O)[C@H](CCCNC(=N)N)NC(=O)[C@@H](NC(=O)CNC(=O)[C@@H]1CCCN1C(=O)CNC(=O)[C@@H]1CCCN1C(=O)[C@@H](NC(=O)[C@H](Cc1ccc(O)cc1)NC(=O)[C@H](CC(N)=O)NC(=O)[C@H](CCC(N)=O)NC(=O)[C@H](Cc1c[nH]c2ccccc12)NC(=O)[C@H](CC(=O)O)NC(=O)[C@@H]1CCCN1C(=O)[C@H](Cc1ccccc1)NC(=O)[C@H](Cc1ccc(O)cc1)NC(=O)CNC(=O)[C@H](CCC(N)=O)NC(=O)[C@@H](N)[C@@H](C)O)[C@@H](C)O)C(C)C)[C@@H](C)O)C(C)C)C(N)=O) [NEF 117]”, the Observed deviation [1] was 4.67%, the “appearance of the solution in pure water” value [2] was “slightly opalescent solution” and the “Filtration yield (%) after mixing” value [3, 4] was 81%. For the same substance, the “Filtration yield (%) after mixing” value [3, 5] was “quantitative” and the “yield (%)” value [3] was 109.08-116.72%.

In the case of “EWRFDSRLAFHHVARELHPEYFKNK(Pam)-NH2 (EWRFDSRLAFHHVARELHPEYFKNK(Palmitoyl)-NH2; N-terminus assumed; SMILES CCCCCCCCCCCCCCCC(=O)NCCCC[C@H](NC(=O)[C@H](CC(N)=O)NC(=O)[C@H](CCCCN)NC(=O)[C@H](Cc1ccccc1)NC(=O)[C@H](Cc1ccc(O)cc1)NC(=O)[C@H](CCC(=O)O)NC(=O)[C@@H]1CCCN1C(=O)[C@H](Cc1c[nH]cn1)NC(=O)[C@H](CC(C)C)NC(=O)[C@H](CCC(=O)O)NC(=O)[C@H](CCCNC(=N)N)NC(=O)[C@H](C)NC(=O)[C@@H](NC(=O)[C@H](Cc1c[nH]cn1)NC(=O)[C@H](Cc1c[nH]cn1)NC(=O)[C@H](Cc1ccccc1)NC(=O)[C@H](C)NC(=O)[C@H](CC(C)C)NC(=O)[C@H](CCCNC(=N)N)NC(=O)[C@H](CO)NC(=O)[C@H](CC(=O)O)NC(=O)[C@H](Cc1ccccc1)NC(=O)[C@H](CCCNC(=N)N)NC(=O)[C@H](Cc1c[nH]c2ccccc12)NC(=O)[C@@H](N)CCC(=O)O)C(C)C)C(N)=O) [NEF 182]”, the Observed deviation [1] was 5.84%, the “Filtration yield (%) after mixing” value [3, 4] was 92% and the “Filtration yield (%) after mixing” value [3, 5] was “quantitative”. For the same substance, the “yield (%)” value [3] was 96.23-102.05%.

For “VGFPVTPQVPLRPMTYKAAVDLSHFLKEKGGLK(Pam)-NH2 [NEF 66]”, the Observed deviation [1] was 4.23%, the “Filtration yield (%) after mixing” value [3, 4] was 95% and the “Filtration yield (%) after mixing” value [3, 5] was “quantitative”. For the same substance, the “yield (%)” value [3] was 89.14-94.6%.

For “TRPNNNTRKSIHIGPGRAFYATGEIIGDIRQAHK(Palmitoyl)-NH2 [ENV]”, the Observed deviation [1] was 14.95%, the “Filtration yield (%) after mixing” value [3, 4] was 95% and the “Filtration yield (%) after mixing” value [3, 5] was “quantitative”. The “yield (%)” value [3] was 104.71-110.89%.
